Values quoted from earlier work, collected in PMC2660313.

Molecular target: Dystrophin WW domain+EF-hand (Drosophila melanogaster) (UniProt Q9VDW6)
Sequence (Q9VDW6 2840-3106): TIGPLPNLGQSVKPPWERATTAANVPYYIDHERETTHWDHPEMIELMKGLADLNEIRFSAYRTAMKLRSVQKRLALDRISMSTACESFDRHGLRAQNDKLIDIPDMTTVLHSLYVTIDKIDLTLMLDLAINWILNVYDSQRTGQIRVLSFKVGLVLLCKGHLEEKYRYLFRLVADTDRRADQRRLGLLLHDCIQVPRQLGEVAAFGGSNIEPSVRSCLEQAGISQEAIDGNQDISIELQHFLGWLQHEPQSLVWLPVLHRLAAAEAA

## p53 peptide (negative control) (from UniProt P04637)
  Kd: 248 µM
